In patent US20210388084A1 (JJP BIOLOGICS SP Z O O, published 2021):
Substitutions are numbered along the chain they refer to. Names may count otherwise.

T1: membrane full-length cynomolgus monkey CD89 (cynomolgus monkey)
T1 construct: also called cynoCD89; cynomolgus EC1-CD89
T1 chain: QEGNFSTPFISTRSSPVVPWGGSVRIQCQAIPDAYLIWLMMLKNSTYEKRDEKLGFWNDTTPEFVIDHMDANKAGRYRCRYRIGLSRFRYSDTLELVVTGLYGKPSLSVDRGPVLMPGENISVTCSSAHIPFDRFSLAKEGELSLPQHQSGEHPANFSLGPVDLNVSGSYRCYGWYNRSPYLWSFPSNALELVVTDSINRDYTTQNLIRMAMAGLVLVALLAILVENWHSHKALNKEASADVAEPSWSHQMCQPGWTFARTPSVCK

T2: chimeric human/cynomolgus monkey CD89-III (human/cynomolgus monkey chimera, UniProt P24071 22-287)
T2 construct: also called ΔGly72-Gly96 human EC1-CD89; III (72-96)
T2 chain: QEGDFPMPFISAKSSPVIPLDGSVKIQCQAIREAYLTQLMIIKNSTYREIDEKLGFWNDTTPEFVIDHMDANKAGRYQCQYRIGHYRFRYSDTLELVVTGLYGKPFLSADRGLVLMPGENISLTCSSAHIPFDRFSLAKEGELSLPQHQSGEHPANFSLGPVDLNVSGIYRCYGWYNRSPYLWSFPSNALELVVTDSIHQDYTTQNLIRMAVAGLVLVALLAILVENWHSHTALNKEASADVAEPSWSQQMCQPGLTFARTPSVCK

T3: chimeric human/cynomolgus monkey CD89-II (human/cynomolgus monkey chimera, UniProt P24071 22-287)
T3 construct: also called ΔIle47-Ile71 human EC1-CD89; II (47-71)
T3 chain: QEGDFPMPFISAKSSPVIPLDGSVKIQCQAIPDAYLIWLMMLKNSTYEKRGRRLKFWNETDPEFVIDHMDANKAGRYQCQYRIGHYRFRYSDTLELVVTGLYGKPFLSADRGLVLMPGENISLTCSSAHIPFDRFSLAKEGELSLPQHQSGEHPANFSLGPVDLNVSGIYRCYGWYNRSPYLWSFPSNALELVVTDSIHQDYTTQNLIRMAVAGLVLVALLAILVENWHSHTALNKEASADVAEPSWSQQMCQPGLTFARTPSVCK

T4: chimeric human/cynomolgus monkey CD89-I (human/cynomolgus monkey chimera, UniProt P24071 22-287)
T4 construct: also called ΔGln22-Lys46 human EC1-CD89; I (22-46)
T4 chain: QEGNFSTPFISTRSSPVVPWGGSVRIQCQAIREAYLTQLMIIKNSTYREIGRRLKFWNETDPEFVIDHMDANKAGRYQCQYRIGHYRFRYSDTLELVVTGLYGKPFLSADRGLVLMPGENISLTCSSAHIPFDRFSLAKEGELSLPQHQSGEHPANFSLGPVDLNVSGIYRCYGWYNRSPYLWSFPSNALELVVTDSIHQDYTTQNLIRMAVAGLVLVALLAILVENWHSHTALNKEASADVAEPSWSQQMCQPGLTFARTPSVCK

T5: chimeric human/cynomolgus monkey CD89-hotspots (human/cynomolgus monkey chimera, UniProt P24071 22-287)
T5 construct: also called ΔThr58, Gln59; ΔArg73, Arg74, Lys76
T5 chain: T2 chain with T37I, Q38W, D51G, D59E, T61D, H85L, Y86S

T6: chimeric bovine EC1-Fcγ2R/human EC2-CD89 (bovine/human chimera)
T6 chain: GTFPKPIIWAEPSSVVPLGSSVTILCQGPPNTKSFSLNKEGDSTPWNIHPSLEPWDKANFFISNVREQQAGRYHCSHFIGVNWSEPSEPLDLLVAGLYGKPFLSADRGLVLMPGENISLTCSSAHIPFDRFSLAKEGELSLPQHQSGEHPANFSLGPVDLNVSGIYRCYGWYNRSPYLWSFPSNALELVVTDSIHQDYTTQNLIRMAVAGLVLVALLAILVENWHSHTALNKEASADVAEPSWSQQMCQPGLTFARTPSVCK

B1: chimeric mouse/human anti-human CD89 antibody 8F3 (antibody, human IgG4 S228P, kappa)
heavy: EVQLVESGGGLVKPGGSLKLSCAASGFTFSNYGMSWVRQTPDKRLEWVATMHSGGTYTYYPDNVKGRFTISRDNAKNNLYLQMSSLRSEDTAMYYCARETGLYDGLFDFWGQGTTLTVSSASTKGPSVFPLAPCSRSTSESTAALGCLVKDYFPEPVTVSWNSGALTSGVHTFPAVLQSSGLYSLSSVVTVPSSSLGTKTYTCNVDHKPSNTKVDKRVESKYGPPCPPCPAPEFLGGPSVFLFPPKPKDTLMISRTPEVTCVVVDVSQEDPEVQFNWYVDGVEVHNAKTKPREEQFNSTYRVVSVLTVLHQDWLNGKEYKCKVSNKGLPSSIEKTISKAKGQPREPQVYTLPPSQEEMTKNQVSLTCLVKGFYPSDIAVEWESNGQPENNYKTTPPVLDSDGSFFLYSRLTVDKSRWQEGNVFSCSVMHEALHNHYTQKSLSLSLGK
light: DVQITQSPSYLAASPGETITINCRASKTISKYLAWYQEKPGKTNMLLIYSGSTLQSGVPSRFSGSGSGTDFTLTISSLEPEDLAMYYCQQHDEYPWTFGGGTKLEIKRTVAAPSVFIFPPSDEQLKSGTASVVCLLNNFYPREAKVQWKVDNALQSGNSQESVTEQDSKDSTYSLSSTLTLSKADYEKHKVYACEVTHQGLSSPVTKSFNRGEC
notes: mouse V regions on stabilized (S239P) human IgG4/kappa; also called chimeric 8F3; copies: 2 + 2
B2: chimeric mouse/human anti-human CD89 antibody 16D6 (antibody, human IgG4 S228P, kappa)
heavy: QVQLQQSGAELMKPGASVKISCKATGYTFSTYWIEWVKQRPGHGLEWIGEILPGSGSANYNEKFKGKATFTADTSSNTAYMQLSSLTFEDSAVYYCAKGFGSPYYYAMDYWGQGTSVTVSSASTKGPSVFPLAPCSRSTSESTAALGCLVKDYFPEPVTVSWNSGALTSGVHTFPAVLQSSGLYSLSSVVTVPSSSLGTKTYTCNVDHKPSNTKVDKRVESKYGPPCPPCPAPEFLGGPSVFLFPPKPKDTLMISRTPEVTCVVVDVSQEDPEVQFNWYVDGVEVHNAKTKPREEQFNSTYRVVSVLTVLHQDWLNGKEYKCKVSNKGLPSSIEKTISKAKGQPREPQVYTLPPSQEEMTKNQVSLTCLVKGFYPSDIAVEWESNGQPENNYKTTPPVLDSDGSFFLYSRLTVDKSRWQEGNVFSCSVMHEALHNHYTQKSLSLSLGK
light: EIVLTQSPALMAASPGEKVTITCSVSSSISSSNLHWYQQKSETSPKPWIYGTSKLASGVPVRFSGSGSGTSYSLTISNMEAEDAATYYCQQWSSFPLTFGGGTKLEIKRTVAAPSVFIFPPSDEQLKSGTASVVCLLNNFYPREAKVQWKVDNALQSGNSQESVTEQDSKDSTYSLSSTLTLSKADYEKHKVYACEVTHQGLSSPVTKSFNRGEC
notes: mouse V regions on stabilized (S239P) human IgG4/kappa; also called chimeric 16D6; 16D16; copies: 2 + 2
B3: mouse anti-human CD89-specific antibody 26D6 (antibody, mouse IgG1, V domains shown)
VH: QIQLVQSGPELKKPGETVKISCKASGYTLTKYGMNWVKQAPGKGLKWMGWINTYTGEPTYADDFKGRFAFSLETSASTAYLQINNLKNEDTATYFCASLPLFGRDSFAYWGQGTLVTVSA
VL: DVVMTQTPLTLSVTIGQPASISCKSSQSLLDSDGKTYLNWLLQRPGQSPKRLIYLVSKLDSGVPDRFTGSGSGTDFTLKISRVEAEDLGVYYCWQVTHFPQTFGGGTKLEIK
notes: printed as 26B6 in some paragraphs; also called 26B6
B4: chimeric mouse/human anti-human CD89 antibody 10E7 (antibody, human IgG4 S228P, kappa)
heavy: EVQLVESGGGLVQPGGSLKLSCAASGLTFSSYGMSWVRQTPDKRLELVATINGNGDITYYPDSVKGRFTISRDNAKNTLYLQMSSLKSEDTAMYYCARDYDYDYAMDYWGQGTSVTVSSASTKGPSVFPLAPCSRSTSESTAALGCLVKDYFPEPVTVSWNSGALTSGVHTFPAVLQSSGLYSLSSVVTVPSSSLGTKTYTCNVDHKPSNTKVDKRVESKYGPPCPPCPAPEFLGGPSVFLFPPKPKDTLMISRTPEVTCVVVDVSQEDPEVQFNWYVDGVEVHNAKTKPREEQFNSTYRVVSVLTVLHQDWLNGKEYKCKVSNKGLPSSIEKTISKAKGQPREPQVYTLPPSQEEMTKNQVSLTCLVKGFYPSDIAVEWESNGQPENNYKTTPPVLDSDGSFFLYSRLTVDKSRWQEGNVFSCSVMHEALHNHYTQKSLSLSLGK
light: DIQMTQSTSSLSASLGDSVTISCRASQDIINYLNWYQQKPDGTVKLLIYYTSRLHSGVPSRFSGSGSGTEYSLTVSNLEKEDIATYFCQQGKTLPYTFGGGTKLEIKRTVAAPSVFIFPPSDEQLKSGTASVVCLLNNFYPREAKVQWKVDNALQSGNSQESVTEQDSKDSTYSLSSTLTLSKADYEKHKVYACEVTHQGLSSPVTKSFNRGEC
notes: mouse V regions on stabilized (S239P) human IgG4/kappa; also called chimeric 10E7; copies: 2 + 2
B5: mouse anti-human CD89-specific antibody 9H7 (antibody, mouse IgG1, V domains shown)
VH: QIQLVQSGPELKKPGETVKISCKASGYTFKNYGMNWVKQAPGKGLKWMAWINTYTGEPTHTDDFKGRFVFSLETSASTAYLQINNLKNEDTATYFCARWGLGTTEEAARDYWGQGTTLTVSS
VL: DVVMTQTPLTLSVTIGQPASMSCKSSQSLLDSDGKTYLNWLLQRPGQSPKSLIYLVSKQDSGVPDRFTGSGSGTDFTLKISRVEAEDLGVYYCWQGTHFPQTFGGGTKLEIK
B6: chimeric mouse/human anti-human CD89 antibody 20B4 (antibody, human IgG4 S228P, kappa)
heavy: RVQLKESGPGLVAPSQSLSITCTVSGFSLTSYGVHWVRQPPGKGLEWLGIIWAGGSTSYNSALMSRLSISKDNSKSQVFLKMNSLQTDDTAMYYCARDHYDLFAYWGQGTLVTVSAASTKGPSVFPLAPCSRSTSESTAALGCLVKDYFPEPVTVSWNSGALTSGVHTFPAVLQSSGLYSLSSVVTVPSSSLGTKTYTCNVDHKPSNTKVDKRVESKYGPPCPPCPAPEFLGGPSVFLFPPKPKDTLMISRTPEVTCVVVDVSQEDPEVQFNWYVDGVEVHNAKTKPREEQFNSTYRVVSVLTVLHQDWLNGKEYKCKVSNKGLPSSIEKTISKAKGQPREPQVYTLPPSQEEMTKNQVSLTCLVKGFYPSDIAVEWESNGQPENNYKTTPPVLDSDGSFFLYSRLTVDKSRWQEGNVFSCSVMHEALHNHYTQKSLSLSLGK
light: DILMTQSPSSMSVSLGDTVSITCHASQDISRNIGWLQQKPGKSFKGLIYHGTNLEDGVPSRFSGSGSGADYSLTISSLESEDFADYYCVQYAQFPRTFGGGTKLEIKRTVAAPSVFIFPPSDEQLKSGTASVVCLLNNFYPREAKVQWKVDNALQSGNSQESVTEQDSKDSTYSLSSTLTLSKADYEKHKVYACEVTHQGLSSPVTKSFNRGEC
notes: mouse V regions on stabilized (S239P) human IgG4/kappa; also called chimeric 20B4; copies: 2 + 2

How the values were obtained:
[1] = target: T7, recombinant C-terminal polyhistidine-tagged human (extracellular) CD89 (human, UniProt P24071 22-227); experiment: ELISA, coated rhuCD89, half-maximum binding
T7 construct: extracellular domain; bought (Sino Biological); also called rhuCD89
Description: After extensive washing with PBS/0.05% Tween 20, plates were blocked with PBS/0.05% Tween 20/1% BSA (Roche) for 1 hour at RT. Subsequently, plates were incubated with 50 μL titrated (in block buffer) purified mouse anti-human CD89 antibody/well for 1 hour at RT. […] After extensive washing in PBS/0.05% Tween 20, binding of antibodies on rhuCD89 was determined with 1:5,000 diluted horseradish peroxidase (HRP)-conjugated goat anti-mouse IgG Fey-specific antibodies (Jackson ImmunoResearch) for 1 hour at RT, followed by a ready-to-use solution of TMB substrate (Invitrogen) for colorimetric detection.
After extensive washing with PBS/0.05% Tween 20, plates were blocked with PBS/0.05% Tween 20/1% BSA (Roche) for 1 hour at RT. Subsequently, plates were incubated with and without 50 μL titrated (in block buffer) purified chimeric mouse/human anti-human CD89 antibody/well for 1 hour at RT. After extensive washing in PBS/0.05% Tween 20, binding of antibodies on rhuCD89 was determined with 1:5,000 diluted horseradish peroxidase (HRP)-conjugated goat anti-human IgG Fey-specific antibodies (Jackson ImmunoResearch) for 1 hour at RT, followed by a ready-to-use solution of TMB substrate (Invitrogen) for colorimetric detection.

[2] = target: T8, membrane-bound full-length human CD89 (human, UniProt P24071 22-287); experiment: FACS, HEK293F-huCD89, half-maximum binding
T8 construct: on stably or transiently transfected HEK293F cells; also called FcalphaRI; huCD89
Description: Then, 10 μL/tube (ie, 0.1×10⁶ cells) of these cells were incubated with or without 100 μL titrated (in PBS/BSA/NaN₃) purified chimeric mouse/human anti-human CD89 antibody/tube for 30 minutes at 4° C. […] After extensive washing in PBS/BSA/NaN₃, cells were subsequently incubated with 1:200 diluted PE-conjugated goat anti-human IgG Fey-specific antibodies (Jackson ImmunoResearch) for 30 minutes at 4° C. After extensive washing in PBS/BSA/NaN₃, cells were fixed in 2% formaldehyde in PBS/BSA/NaN₃ for 30 minutes at 4° C.

[3] = target: T8, membrane-bound full-length human CD89; experiment: FACS, HEK293F-huCD89, 24 h 37C no NaN3, IgA then Ab 10 ug/mL; pre-bound non-aggr serum IgA
Description: (§1) After extensive washing in PBS/BSA/NaN₃, 1:200 diluted PE-conjugated streptavidin (Jackson ImmunoResearch) was added, and incubated for 30 minutes at 4° C. After extensive washing in PBS/BSA/NaN₃, cells were fixed in 2% formaldehyde in PBS/BSA/NaN₃ for 30 minutes at 4° C.

[4] = target: T8, membrane-bound full-length human CD89; experiment: FACS, HEK293F-huCD89, 4C +NaN3, Ab 10 ug/mL then IgA; competitor heat-aggr serum IgA
Description: To mimic human IgA immune complexes, human (serum-derived) IgA (Bethyl Laboratories) was heated at 63° C. for 30 minutes, and cooled down to RT followed by centrifugation at 4° C. 12000×g for 2 minutes to remove any insoluble protein precipitation.
Then, 10 μL/tube (ie, 0.1×10⁶ cells) of these cells were incubated with or without 50 μL purified mouse anti-human CD89 antibody at 20 μg/mL (in PBS/BSA/NaN₃) for 30 minutes at 4° C.

[5] = target: T1, membrane full-length cynomolgus monkey …; experiment: FACS, transiently transfected HEK293F; - = no binding
Description: (§2) After 48 hours, the binding of CD89/IgA blocking mouse anti-human CD89 antibodies to aforementioned chimeric human CD89/cynomolgus monkey CD89 constructs on transfected cells was analyzed by FACS analysis. To this end, transient transfected HEK293F cells were put at 10×10⁶ cells/mL in ice-chilled phosphate-buffered saline containing 0.1% BSA (Sigma)/0.05% NaN₃ (PBS/BSA/NaN₃) supplemented with 50 μg/mL human IgGs (blocking Fcγ receptors; Sigma) for 10 minutes at 4° C. Then, 10 μL/tube (ie, 0.1×10⁶ cells) of these cells were incubated with or without 100 μL purified mouse anti-human CD89 antibody at 10 μg/mL (in PBS/BSA/NaN₃) for 30 minutes at 4° C. […] After extensive washing in PBS/BSA/NaN₃, cells were subsequently incubated with 1:200 diluted PE-conjugated goat anti-mouse IgG Fey-specific antibodies (Jackson ImmunoResearch) for 30 minutes at 4° C. After extensive washing in PBS/BSA/NaN₃, cells were fixed in 2% formaldehyde in PBS/BSA/NaN₃ for 30 minutes at 4° C.

[6] = target: T8, membrane-bound full-length human CD89; experiment: FACS, HEK293F-huCD89, 24 h 37C no NaN3, IgA then Ab 10 ug/mL; pre-bound heat-aggr serum IgA
Description: as §1

[7] = target: T2, chimeric human/cynomolgus monkey …; experiment: FACS, transiently transfected HEK293F, 10 ug/mL; ++ strong, + intermediate, -/+ weak
Description: as §2

[8] = target: T3, chimeric human/cynomolgus monkey CD89-II; experiment: as above
Description: as §2

[9] = target: T4, chimeric human/cynomolgus monkey CD89-I; experiment: as above
Description: as §2

[10] = target: T5, chimeric human/cynomolgus monkey …; experiment: as above
Description: as §2

[11] = target: T8, membrane-bound full-length human CD89; experiment: FACS, HEK293F-huCD89, 24 h 37C no NaN3, Ab 10 ug/mL then IgA; competitor non-aggr serum IgA
Description: as §1

[12] = target: T8, membrane-bound full-length human CD89; experiment: FACS, HEK293F-huCD89, unlabeled Ab 10 ug/mL first; competitor MIP8a-PE
Description: Then, 10 μL/tube (ie, 0.1×10⁶ cells) of these cells were incubated with or without 100 μL purified mouse anti-human CD89 antibody at 10 μg/mL (in PBS/BSA/NaN₃) for 30 minutes at 4° C. […] After extensive washing in PBS/BSA/NaN₃, cells were fixed in 2% formaldehyde in PBS/BSA/NaN₃ for 30 minutes at 4° C.

[13] = target: T8, membrane-bound full-length human CD89; experiment: FACS, HEK293F-huCD89, 4C +NaN3, Ab 10 ug/mL then IgA; competitor non-aggr serum IgA
Description: Then, 10 μL/tube (ie, 0.1×10⁶ cells) of these cells were incubated with or without 50 μL purified mouse anti-human CD89 antibody at 20 μg/mL (in PBS/BSA/NaN₃) for 30 minutes at 4° C. […] After extensive washing in PBS/BSA/NaN₃, 1:200 diluted PE-conjugated streptavidin (Jackson ImmunoResearch) was added, and incubated for 30 minutes at 4° C. After extensive washing in PBS/BSA/NaN₃, cells were fixed in 2% formaldehyde in PBS/BSA/NaN₃ for 30 minutes at 4° C.

[14] = target: T8, membrane-bound full-length human CD89; experiment: FACS, HEK293F-huCD89, 24 h 37C no NaN3, Ab 10 ug/mL then IgA; competitor heat-aggr serum IgA
Description: as §1

[15] = target: T6, chimeric bovine EC1-Fcγ2R/human EC2-CD89; experiment: FACS, transiently transfected HEK293F
Description: After 48 hours and/or 72 hours, the binding of CD89/IgA blocking mouse anti-human CD89 antibodies to aforementioned chimeric human/bovine receptors on transfected cells was analyzed by FACS analysis. To this end, transient transfected HEK293F cells were put at 10×10⁶ cells/mL in ice-chilled phosphate-buffered saline containing 0.1% BSA (Sigma)/0.05% NaN₃ (PBS/BSA/NaN₃) supplemented with 50 μg/mL human IgGs (blocking Fcγ receptors; Sigma) for 10 minutes at 4° C. Then, 10 μL/tube (ie, 0.1×10⁶ cells) of these cells were incubated with or without 100 μL purified mouse anti-human CD89 antibody at 10 μg/mL (in PBS/BSA/NaN₃) for 30 minutes at 4° C. […] After extensive washing in PBS/BSA/NaN₃, cells were subsequently incubated with 1:200 diluted PE-conjugated goat anti-mouse IgG Fey-specific antibodies (Jackson ImmunoResearch) for 30 minutes at 4° C. After extensive washing in PBS/BSA/NaN₃, cells were fixed in 2% formaldehyde in PBS/BSA/NaN₃ for 30 minutes at 4° C.

[16] = target: T8, membrane-bound full-length human CD89; experiment: FACS, HEK293F-huCD89, 4C +NaN3, IgA then Ab 10 ug/mL; pre-bound non-aggr serum IgA
Description: After this (ie, without washing), 50 μL purified mouse anti-human CD89 antibody at 20 μg/mL (in PBS/BSA/NaN₃) was added to these cells, and incubated for another 30 minutes at 4° C. […] After extensive washing in PBS/BSA/NaN₃, 1:200 diluted PE-conjugated streptavidin (Jackson ImmunoResearch) was added, and incubated for 30 minutes at 4° C. After extensive washing in PBS/BSA/NaN₃, cells were fixed in 2% formaldehyde in PBS/BSA/NaN₃ for 30 minutes at 4° C.

[17] = target: T8, membrane-bound full-length human CD89; experiment: FACS, HEK293F-huCD89, 4C +NaN3, IgA then Ab 10 ug/mL; pre-bound heat-aggr serum IgA
Description: as §1

| Binder | EC50 [1] | EC50 [2] | percent IgA binding (remaining) [3] | percent IgA binding [4] | percent IgA binding (remaining) [6] | percent IgA binding (remaining) [11] | % blocking of MIP8a-PE binding [12] | percent IgA binding [13] | percent IgA binding (remaining) [14] | percent IgA binding [16] | percent IgA binding [17] | other results |
| --- | --- | --- | --- | --- | --- | --- | --- | --- | --- | --- | --- | --- |
| B1 | 0.031 µg/mL | 1.32 µg/mL |  |  |  |  |  |  |  |  |  |  |
| B2 | 0.108 µg/mL | 1.79 µg/mL |  |  |  |  |  |  |  |  |  |  |
| B3 |  |  | 0 to 25% | 0 to 25% | 0 to 25% | 0 to 25% | > 90% | 0 to 25% | 0 to 25% | 0 to 25% | 0 to 25% | binding result [5]: no binding (tested: 10 µg/mL); binding result [7]: binds; binding result [8]: binds; binding result [9]: binds; binding result [10]: binds; binding result [15]: no binding (tested: 10 µg/mL) |
| B4 | 0.016 µg/mL | 1.25 µg/mL |  |  |  |  |  |  |  |  |  |  |
| B5 |  |  | 0 to 25% | 0 to 25% | 0 to 25% | 0 to 25% | > 90% | 0 to 25% | 0 to 25% | 0 to 25% | 0 to 25% |  |
| B6 | 0.009 µg/mL | 0.296 µg/mL |  |  |  |  |  |  |  |  |  |  |
